Measurements from patent US12258396 (MEDICOVESTOR, dated 2025).

B1: lead fully-human anti-FRalpha IgG1 antibody (antibody according to SEQ ID NO: 3-12) (antibody, V domains shown)
VH: EVQLLESGGGLVKPGGSLRLSCAASGFTFSSYTMNWVRQAPGKGLEWVSSISSGGGYIYYADSVKDRFTISRDNAKNSLYLQMNSLRAEDTAVYYCAKGDTIMIISAWGQGTTVTVSS
VL: DIQLTQSPSTLSASVGDRVTITCRASQSISSWLAWHQQKPGKAPKLLIYAASSLQNGVPSRFSGSGFGTDFTLTISSLQPEDFATYYCQQASSFPLTFGGGTKVEIKR
notes: Fully human IgG1/kappa; also called lead antibody; lead anti-FRalpha antibody
B2: Mirvetuximab (antibody, V domains shown)
VH: QVQLVQSGAEVVKPGASVKISCKASGYTFTGYFMNWVKQSPGQSLEWIGRIHPYDGDTFYNQKFQGKATLTVDKSSNTAHMELLSLTSEDFAVYYCTRYDGSRAMDYWGQGTTVTVSS
VL: DIVLTQSPLSLAVSLGQPAIISCKASQSVSFAGTSLMHWYHQKPGQQPRLLIYRASNLEAGVPDRFSGSGSKTDFTLTISPVEAEDAATYYCQQSREYPYTFGGGTKLEIK

Assays:
[1] = target: T1, human FRalpha expressed on cells (transfected HEK293 cells; SKOV3 human ovarian cancer cells) (human, UniProt P15328 25-234); assay: flow cytometry on SKOV3 human ovarian cancer cells that express FRalpha
T1 construct: whole, on cells; also called human folate receptor alpha
T1 sequence (P15328 25-234): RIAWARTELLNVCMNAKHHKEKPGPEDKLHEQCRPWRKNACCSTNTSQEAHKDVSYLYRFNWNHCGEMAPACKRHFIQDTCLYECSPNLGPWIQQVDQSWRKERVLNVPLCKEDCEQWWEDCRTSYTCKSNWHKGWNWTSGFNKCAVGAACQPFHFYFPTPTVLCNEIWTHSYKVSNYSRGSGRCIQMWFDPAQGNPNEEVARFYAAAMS
Procedure: (§1) The affinity of each antibody was then assessed by flow cytometry. Briefly, HEK293 cells transfected to express FRalpha were washed with fluorescence-activated cell sorting (FACS) buffer, to which the IgGs were added at varying concentrations and incubated at 4 degrees Celsius for 60 minutes. The cells were then centrifuged and washed twice in FACS buffer. A phycoerythrin-labelled anti-human IgG, Fcgamma antibody (109-115-098; Jackson ImmunoResearch, Pennsylvania, United States) was then added to the cells at a 1:200 dilution and incubated at 4 degrees Celsius for 30 minutes. The cells were then washed, resuspended in FACS buffer, and counted by flow cytometry. Results are depicted in FIG. 4.
The flow cytometry experiment of the preceding paragraph was repeated with a human ovarian cancer cell line that expresses FRalpha, SKOV3. Results are depicted in FIGS. 5A and 5B. […] The antibody according to SEQ ID NO: 3-12 was then designated the lead antibody for further development.

[2] = target: T2, fusion protein containing the extracellular domain of cynomolgus FRalpha and a polyhistidine tag (cynomolgus, UniProt A0A2K5U044 25-233); assay: ELISA, plate coated with cynomolgus FRalpha ECD-His, anti-human-IgG-Fc-HRP detection
T2 construct: extracellular domain; Coated on ELISA plates; also called cynomolgus FRalpha extracellular domain; not shown: polyhistidine tag
T2 sequence (A0A2K5U044 entry or part of it): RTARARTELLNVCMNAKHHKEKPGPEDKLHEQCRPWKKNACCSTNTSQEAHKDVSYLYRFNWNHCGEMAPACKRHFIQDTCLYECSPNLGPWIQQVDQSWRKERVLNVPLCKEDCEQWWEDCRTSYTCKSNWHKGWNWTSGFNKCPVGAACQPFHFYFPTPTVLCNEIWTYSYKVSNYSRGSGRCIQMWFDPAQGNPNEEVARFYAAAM

[3] = target: T1, human FRalpha expressed on cells …; assay: flow cytometry on HEK293 cells transfected to express FRalpha, PE anti-human IgG Fcgamma detection
Procedure: as §1

[4] = target: T3, fusion protein containing the extracellular domain of human FRalpha and a polyhistidine tag (human, UniProt P15328 25-233); assay: ELISA, plate coated with human FRalpha ECD-His, anti-human-IgG-Fc-HRP detection
T3 construct: extracellular domain; Coated on ELISA plates; also called human FRalpha extracellular domain; not shown: polyhistidine tag
T3 sequence (P15328 25-233 limits assumed): as the sequence (A0A2K5U044 entry or part of it) above, with T2I, R4W, K37R, P146A, Y171H counted along it
Procedure: The affinity of each IgG1 for FRalpha was confirmed by ELISA. Briefly, a fusion protein containing the extracellular domain of human FRalpha and a polyhistidine tag was used to coat ELISA plates, which were washed three times with phosphate-buffered saline (PBS) containing 0.1 percent polysorbate 20 (PBST), then blocked with PBS containing 5 percent powdered milk (PBSM), and then washed three more times with PBST. Wells were then incubated with antibodies at varying concentrations for 60 minutes at room temperature in 1 percent PBSM. Wells were then washed three times with PBST, after which the secondary, horse-radish-peroxidase-conjugated antibody anti-human-IgG-Fc-HRP (ab97225, Abcam, United Kingdom) was added at a 1:8000 dilution in 1 percent PBSM for 50 minutes at room temperature. The wells were then washed six times with PBST, after which 3,3',5,5"-tetramethylbenzidine (TMB) was added. The reaction was stopped with 2 molar sulfuric acid, and the TMB diamine product was quantified at 450 nanometers in a plate reader. Results are depicted in FIG. 2.

Binder	EC50 [1] [nM]	EC50 [2] [nM]	EC50 [3] [nM]	EC50 [4] [nM]
B1	< 1	~0.06	~5	~0.05
B2	–	~0.16	~4	~0.12
